Assay results reported in patent US20240209061A1, “FUSION PROTEINS AND USES THEREOF” (Pfizer Inc., priority 2020, published 2024).

Legend:
[1] = Viscosity (Anton Paar rheometer); type: physicochemical; settings: 20 mM histidine, 8.5% sucrose, pH 5.8
Protocol: The viscosity of CD80-Fc fusion proteins was assessed at various concentrations. Lower viscosity is desired for subcutaneous administration, and providing optimal syringeability and minimal pain to patients. Viscosity was measured using an Anton Paar rheometer and a CP-25 measuring system at 150 rpm. The sample comprised CD80-Fc fusion proteins in 20 mM histidine and 8.5% sucrose at pH 5.8.

[2] = test system: CT26 murine colorectal carcinoma tumor cells; test: CT26 murine colorectal carcinoma model; type: in vivo, mouse; settings: for Day 10 tumor volume: Days 0 and 3; for % tumor growth inhibition: Day 10; for # IFNγ-producing spots (tumor-reactive T cells in spleen): average of n = 4 mice
Protocol: CT26 murine colorectal carcinoma tumor cells (1×10^6) were subcutaneously implanted in the hind flank of female Balb/c mice. When tumors reached ˜100 mm3 (Day 8), mice were randomized. PBS vehicle control or variant CD80-Fc fusion proteins were dosed intravenously at 0.1 and 1.0 mg/kg on Days 0 and 3. Tumor volume was determined by caliper measurements obtained in 2 dimensions and calculated as width^2×length/2. Error bars are depicted as ±SEM.
IFNγ ELIspot was used to measure tumor-reactive T cells in the spleen in mice treated with CD80-Fc fusion proteins at a 1 mg/kg dose.
Cytotoxic CD8^+ T cells are responsible for killing cancer cells and the measurement of CD8^+ T cells that have infiltrated tumors commonly correlates with efficacy for immune-oncology therapies. For all in vivo studies, tumors were collected ˜1 week after the first dose and dissociated by mincing, followed by incubation in an enzymatic digestion cocktail and homogenization. The resulting cell suspension was filtered and washed, and single cells were stained with antibodies to CD45, CD8, and a viability dye to detect tumor-infiltrating lymphocytes (TILs) by flow cytometry. Data were acquired on a BD LSRFortessa flow cytometer or a Cytek Aurora spectral flow cytometer. Table 31 and FIG. 18 show the amount of tumor-infiltrating CD8+ T cells expressed as a percentage of total immune cells (CD45+). Each value is the average of n=4 mice per group. Treatment with all variant CD80-Fc fusion proteins led to increase in CD8+ TILs in various tumor models.

[3] = AC-SINS self-interaction assay; type: physicochemical
Protocol: Variant CD80-Fc fusion proteins were assessed by measuring non-specific binding using a DNA- and insulin-binding ELISA (Avery et al., MAbs. 2018 February/March; 10(2): 244-255) and for self-interaction in an AC-SINS assay (affinity-capture self-interaction nanoparticle spectroscopy; Liu et al., 2014, mAbs 6:483-92). DNA- and insulin-binding scores were calculated as the signal ratio of the ELISA signal of the CD80-Fc fusion protein at 10 μg/ml to the ELISA signal in the absence of the Fc-fusion protein (buffer only). For the AC-SINS assay, proteins are captured by anti-human Fc antibodies coated on gold nanoparticles. […] The score ranges obtained from these in vitro assays correlate well with in vivo clearance using huFcRn transgenic (Tg32) mouse. Therapeutic proteins with high scores are at high risk for rapid clearance and unfavorable PK and therapeutics that score low are at low risk and favorable PK.

[4] = Pharmacokinetics in huFcRn transgenic mice; settings: 0.1 mg/kg IV; for Cmax: average of 3 animals
Protocol: PK of CD80-Fc fusion proteins was also assessed in transgenic mice expressing the human neonatal Fc receptor (huFcRn) a-chain transgene under the control of its natural human promoter. Female mice were dosed intravenously with CD80-Fc fusion proteins at 0.1 mg/kg, and blood was collected at the timepoints indicated on the graph. Levels of CD80-Fc in mouse plasma were measured as described above.

[5] = Thermal forced aggregation (SEC); type: physicochemical; settings: 24 hours, PBS
Protocol: To assess the aggregation propensity of variant CD80-Fc fusion proteins, 1 mg/ml of CD80-Fc fusion protein was incubated in PBS at increasing temperatures for 24 hours. The samples were analyzed by SEC on an Agilent 1100 (Agilent Technologies, Germany) HPLC system using a YMC-Pack Diol-200 (YMC, Germany) analytical size exclusion chromatography column and PBS supplemented to 400 mM NaCl as running buffer. % aggregation was calculated from the loss of intact peak area. […] ND=Not Determined.

[6] = test system: Jurkat-IL-2-Luc reporter cells; test: Jurkat-IL-2-Luc and HCT116-CD64 reporter co-stimulation assay; type: cell-based, human; settings: for EC50: Table 17, 20 ng/ml CDH3×CD3 bispecific, n=2
Excerpt: A T cell co-stimulation assay was designed based on T Cell Activation Bioassay (IL-2) Kit from Promega (Product #J1631). The assay consisted of a genetically engineered Jurkat T cell line that expresses luciferase reporter driven by an IL-2 promoter. Co-engagement of T cell antigen receptor (TCR/CD3) and CD28 co-stimulatory receptor induces activation of T cells and downstream intracellular signaling pathways that in turn regulate the expression of luciferase reporter. As described above, HCT116 human colon cancer cell line was used for TCR engagement using the CDH3×CD3 bispecific and genetically engineered by lentiviral transduction to express human FCγRI.
A 96 well culture plate was seeded with HCT116 parental or HCT116-CD64 cells at 40,000 cells per well in 100 μL RPMI with 10% HI FBS and grown overnight at 37° C. in CO2 incubator. To each well, Jurkat reporter cells (100,000 per well) and 10 μL of the CDH3×CD3 bispecific (8 ng/ml final concentration) were added. 10 μL of serial dilutions of variant CD80-Fc fusion proteins with concentrations ranging from 0-1000 ng/ml (final concentrations per well) was added with appropriate controls. Assay plates were incubated for 6 hours at 37° C. in CO2 incubator for before harvesting culture supernatants and transferring to new plates. Following equilibration, 80 μL of BioGlo luminescence reagent (BioGlo Luciferase assay kit, Promega, G7940) was added into each well. Plates were incubated for 5 minutes before reading luminescence on the EnSight™ plate reader (PerkinElmer).
Jurkat is an immortalized human T cell line, and the Jurkat IL-2-reporter assay assesses the CD28-mediated signaling resulting in activation of the IL-2 promoter. The activity of CD80-Fc fusion proteins was measured using the co-culture HCT116-CD64-Jurkat IL-2 reporter assay, as described in Example 2, but using 20 ng/ml CDH3×CD3 bispecific.

Substance | Number of tumor regressions ([2]; 0.1 mg/kg) | Day 10 tumor volume ([2]; 0.1 mg/kg IV) | % tumor growth inhibition ([2]; 0.1 mg/kg) | Number of tumor regressions ([2]; 1 mg/kg) | Day 10 tumor volume ([2]; 1 mg/kg IV) | % tumor growth inhibition ([2]; 1 mg/kg) | # IFNγ-producing spots (tumor-reactive T cells in spleen) ([2]; 1 mg/kg) | AC-SINS Score ([3]; Table 6) | AUC [4] | CL [4] | T1/2 [4] | Vdss [4] | Cmax [4] | % aggregation ([5]; Table 12, 40° C.) | % aggregation ([5]; Table 12, 45.3° C.) | % aggregation ([5]; Table 12, 49.4° C.) | EC50 [6] | % aggregation ([5]; Table 11, 40° C.) | % aggregation ([5]; Table 11, 45.3° C.) | % aggregation ([5]; Table 11, 49.4° C.) | also measured
CD80-K89Q-D90Q-E23C-A26C-Fc: disulfide stabilized variant CD80-Fc fusion protein (K89Q, D90Q, E23C, A26C) | 5/10 | 289.9 mm^3 | 75.80% | 6/10 | 305.3 mm^3 | 74.51% | 547.375 | −1 | 182 µg·h/mL | 8.6 mL/day/kg | 211 h | 0.109 L/kg | 2200 ng/mL | 0.6% | 2.9% | 0.5% | 270 ± 44 pM |  |  |  | Viscosity ([1]; 107.0 mg/ml): 9.878 cP; Viscosity ([1]; 148.0 mg/ml): 30.16 cP; % aggregation ([5]; Table 11, 54.9° C.): 3.2%; % aggregation ([5]; Table 11, 59.1° C.): 22.8%; % aggregation ([5]; Table 11, 64° C.): 36.2%; % aggregation ([5]; Table 12, 54.9° C.): 6.7%; % aggregation ([5]; Table 12, 59.1° C.): 55.9%; % aggregation ([5]; Table 12, 64° C.): 68.8%
CD80-WT-Fc: wild-type human CD80 extracellular domain fused to human IgG1 Fc (C220S) [reference compound] |  |  |  |  |  |  |  | 0 | 97 µg·h/mL | 20.2 mL/day/kg | 80 h | 0.087 L/kg | 2000 ng/mL | 0.6% | 64.9% | 83.4% | 580 ± 74 pM | 18.0% | 45.4% | 50.8% | Viscosity ([1]; 101.65 mg/ml): 35.7 cP; Viscosity ([1]; 132.25 mg/ml): 158.8 cP; AC-SINS Score ([3]; Table 7): 0
CD80-K89D-D90K-T28V-T57V-Fc: non-cysteine stabilized variant CD80-Fc fusion protein (K89D, D90K, T28V, T57V) |  |  |  |  |  |  |  |  | 147 µg·h/mL | 14 mL/day/kg |  | 0.082 L/kg | 2300 ng/mL | 0.6% | 6.0% | 62.8% | 47 ± 4 pM |  |  |  | Viscosity ([1]; 92.7 mg/ml): 12.1 cP; Viscosity ([1]; 119 mg/ml): 27.8 cP; AC-SINS Score ([3]; Table 7): −1; % aggregation ([5]; Table 12, 54.9° C.): 72.5%
CD80-K89Q-D90Q-Fc: variant CD80 ECD (K89Q, D90Q) fused to human IgG1 Fc | 1/10 | 857.6 mm^3 | 28.41% | 5/10 | 299.0 mm^3 | 75.04% | 569.5 | 0 |  |  |  |  |  |  |  |  |  | 69.9% | 77.7% | 78.0% | Viscosity ([1]; 93.5 mg/ml): 32.8 cP; Viscosity ([1]; 120.6 mg/ml): 115.8 cP; enhanced co-stimulation compared to CD80-WT-Fc [6]: about 4 fold
CD80-D90Q-Fc: variant CD80 ECD (D90Q) fused to human IgG1 Fc | 0/10 | 728.3 mm^3 | 39.20% | 6/10 | 295.8 mm^3 | 75.31% | 341.6875 | 0 |  |  |  |  |  |  |  |  |  | 81.6% | 89.5% | 89.5% | CD8^+ T cell infiltrates (% CD45) ([2]; CT26, 1 mg/kg, n=4): 27.4 % CD45
